Target: HIV-1 envelope glycoprotein gp120 (UniProt P04578)

trypsin
saturability of trypsin-catalyzed gp120 cleavage with gp120 concentration: nonsaturable at concentrations up to 1 µM

— patent US7960364
